Measured values taken from patent US20250282874A1 (SUZHOU TRANSCENTA THERAPEUTICS, published 2025).
Like-named read-outs stand apart in the source and are kept apart here.

Experiments:
human PD-L1-Fc = molecular target: T1, human PD-L1-Fc (human, UniProt Q9NZQ7 19-239); assay: competition ELISA, hPD-L1-Fc coated; blocked ligand hPD-1-Fc-biotin, OD450
T1 construct: also called hPD-L1-Fc; human PD-L1-Fc (Sino Biological, 70110-D02H); not shown: Fc part

[1] = molecular target: T2, human PD-L1 expressed on cells (human, UniProt Q9NZQ7 19-290); assay: flow cytometry on NCI-H460 cells, Mean FITC-A
T2 construct: whole, on cells; also called MC38/hPD-L1

[2] = molecular target: T3, hPD-L1 (Acro Biosystems, PD1-H5229) (human, UniProt Q9NZQ7 19-238); assay: ELISA, hPD-L1 coated, anti-human Fc-HRP, OD450
T3 construct: also called human PD-L1; hPD-L1 protein
Procedure: Then 300 μL of 2% (w/v) BSA was added for blocking at room temperature for 1 h. […] After incubation at room temperature for 1 h, mixed TMB substrate reagent (InnoReagents, TMB-S-003) was added and incubated at room temperature for 5 min, and stopped by adding 0.1M H₂SO₄. OD450 nm was recorded by Microplate Reader. The data was analyzed by Graphpad prism.

[3] = molecular target: T2, human PD-L1 expressed on cells; assay: cell-based or functional assay
[4] = molecular target: cynomolgus PD-L1 on activated cynomolgus T cells (cynomolgus, UniProt G7PSE7 19-290); assay: flow cytometry on PHA-activated cynomolgus PBMC (T cells), Mean APC-A
Sequence of cynomolgus PD-L1 on activated cynomolgus T cells (G7PSE7 entry or part of it limits assumed): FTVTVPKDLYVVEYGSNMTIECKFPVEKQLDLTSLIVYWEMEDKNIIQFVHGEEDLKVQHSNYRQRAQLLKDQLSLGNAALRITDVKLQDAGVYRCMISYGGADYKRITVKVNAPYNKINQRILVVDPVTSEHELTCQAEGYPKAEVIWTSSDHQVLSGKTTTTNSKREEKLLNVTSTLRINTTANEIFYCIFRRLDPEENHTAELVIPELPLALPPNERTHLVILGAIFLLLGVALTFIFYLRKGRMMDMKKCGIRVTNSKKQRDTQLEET
Procedure: Human or cynomolgus PBMC (TPCS, Cat #PB025C) was recovered from liquid nitrogen and resuspended in RPMIi640 with 10% FBS. 5 μg/mL PHA (Sigma, Cat #L8902) was added to stimulate PBMC activation and cells were cultured for 3 days. […] After centrifugation and removal of the supernatant in the plate, the diluted antibodies were added to the plate with the activated PBMC and incubated in 4° C. for 1 hour. […] After washing, cells were resuspended in 150 μL PBS and analyzed by flow cytometry.

cynoPD-L1-Fc = cynoPD-L1-Fc (cynomolgus, UniProt G7PSE7 19-238, Fc carrier is left out of the letters.); assay: competition ELISA, cynoPD-L1-Fc coated; blocked ligand cyno PD-1-Fc-biotin, OD450
Sequence of cynoPD-L1-Fc (G7PSE7 entry or part of it limits assumed): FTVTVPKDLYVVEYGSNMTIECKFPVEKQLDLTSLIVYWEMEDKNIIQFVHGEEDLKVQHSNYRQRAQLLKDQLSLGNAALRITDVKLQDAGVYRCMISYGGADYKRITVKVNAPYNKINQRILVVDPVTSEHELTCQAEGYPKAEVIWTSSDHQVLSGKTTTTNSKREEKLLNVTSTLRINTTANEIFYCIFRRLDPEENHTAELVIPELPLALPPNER
Procedure: 300 μL of 3% (w/v) skim milk was added for blocking at room temperature for 1 h. […] 0.5% PBS+Tween-20 were used for washing for 3 times, and 100 μL HRP-conjugated streptavidin (1:5000) was added.

[5] = molecular target: T2, human PD-L1 expressed on cells; assay: flow cytometry on activated human T cells, Mean FITC-A
[6] = molecular target: T2, human PD-L1 expressed on cells; assay: cell-based or functional assay; remark: listed apart in the source
human TGFβ1 = molecular target: T4, human TGFβ1 (human, UniProt P01137 279-390); assay: bridging ELISA, hTGFβ-1 coated, detected with hPD-L1-biotin and streptavidin-HRP
T4 construct: also called hTGFβ-1; TGFb1
T4 sequence (P01137 279-390 limits assumed): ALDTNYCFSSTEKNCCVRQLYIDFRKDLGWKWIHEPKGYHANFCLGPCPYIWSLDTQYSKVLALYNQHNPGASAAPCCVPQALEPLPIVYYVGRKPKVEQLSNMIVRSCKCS
Procedure: 0.5 μg/mL hTGFβ-1 was coated to the ELISA plate and left overnight at 4° C. Then 300 µL of blocking buffer was added for blocking at room temperature for 1 h. […] 1h later, 100 μL HRP-conjugated streptavidin (1:5000) was added. After incubation at room temperature for 1 h, mixed TMB substrate reagent (InnoReagents, TMB-S-003) was added and incubated at room temperature for 5 min, and stopped by adding 0.1M H₂SO₄. OD450 nm was recorded by Microplate Reader.

[7] = molecular target: T2, human PD-L1 expressed on cells; assay: flow cytometry on 293T-PD-L1-CD3L cells, PE anti-human IgG, Mean PE-A
Procedure: After centrifugation and removing the supernatant, the diluted antibodies were added to the plate and incubated in 4° C. for 30 min. […] After washing, cells were resuspended in 200 μL PBS and analyzed by flow cytometry. The data was analyzed by Graphpad prism.

[8] = molecular target: T2, human PD-L1 expressed on cells; assay: flow cytometry on 293T-PD-L1-CD3L cells, Mean FITC-A as printed
Procedure: The cell was transfected with both human PD-L1 and anti-CD3 scFv. […] After centrifugation and removing the supernatant, the diluted antibodies were added to the plate and incubated in 4° C. for 30 min. […] After washing, cells were resuspended in 200 μL PBS and analyzed by flow cytometry. The data was analyzed by Graphpad prism.

[9] = molecular target: T2, human PD-L1 expressed on cells; assay: cell-based or functional assay; remark: listed apart in the source
[10] = molecular target: T2, human PD-L1 expressed on cells; assay: flow cytometry on PHA-activated human PBMC (T cells), Mean APC-A
Procedure: Human PBMC (TPCS, Cat #PB025C) was recovered from liquid nitrogen and resuspended in RPMIi640 with 10% FBS. 5 μg/mL PHA (Sigma, Cat #L8902) was added to stimulate PBMC activation and cells were cultured for 3 days. […] After centrifugation and removal of the supernatant in the plate, the diluted antibodies were added to the plate with the activated PBMC and incubated in 4° C. for 1 hour. […] After washing, cells were resuspended in 150 μL PBS and analyzed by flow cytometry.

[11] = molecular target: T2, human PD-L1 expressed on cells; assay: flow cytometry on MC38/hPD-L1 cells, Mean FITC-A
[12] = molecular target: T2, human PD-L1 expressed on cells; assay: flow cytometry on NCI-H292 cells, Mean FITC-A
[13] = molecular target: T3, hPD-L1 (Acro Biosystems, PD1-H5229); assay: ELISA, hPD-L1 coated, anti-human Fc-HRP, OD450; remark: listed apart in the source
[14] = molecular target: T2, human PD-L1 expressed on cells; assay: flow cytometry on EMT6/hPD-L1 cells, Mean FITC-A

IC50 (human PD-L1-Fc): 2280 pM
EC50 [1]: 222 pM
EC50 [2]: 11.4 pM
IC50 (so in the source), NFAT-luciferase luminescence, hPD-L1/hPD-1 reporter cell assay [3]: 714 pM
EC50 [4]: 684 pM
IC50 (cynoPD-L1-Fc): 2060 pM
EC50 [5]: 160 pM
IC50 (so in the source), NFAT-luciferase luminescence, 293T-PD-L1-CD3L cells with Jurkat-NFAT-Luc-PD1 cells [6]: 1080 pM
binding result (human TGFβ1): no binding (tested: 100 nM)
EC50 [7]: 903 pM
EC50 [8]: 774 pM
IC50 (so in the source), luminescence (axis printed OD450), 293T-PD-L1-CD3L cells with Jurkat-NFAT-Luc-PD1 cells [9]: 994 pM
EC50 [10]: 267 pM
EC50 [11]: 299 pM
EC50 [12]: 199 pM
EC50 [13]: 31.3 pM
EC50 [14]: 240 pM
B1: AM4B6-hIgG1 monoclonal antibody (antibody, V domains shown)
VH: QVQLVQSGAEVKKPGASVKVSCKASGYVFTDYYMNWVRQAPGQSLEWMGDINPNNAETLYNHKFKGRVTVTVDKSISTAYMELSRLRSDDTAVYYCVKWGDGPFAYWGQGTLVTVSS
VL: DIQMTQSPSSLSASVGDRVTITCKASQNVGAAVAWYQQKPGKAPKLLIYSVSDRYTGVPSRFSGSGSGTDFTLTISSLQPEDIATYYCQQYSNYPTFGQGTKLEIK
notes: hIgG1; also called AM4B6 mAb; AM4B6 monoclonal antibody
